Data taken from patent publication US20150344570A1 (published 2015).

T1: FcγRIIb extracellular domain with C-terminal His tag (human, UniProt P31994 43-217)
T1 construct: extracellular domain; Expressed in FreeStyle293 cells; analyte in the SPR assay; also called FcgRIIb; 2b
T1 sequence (looked up): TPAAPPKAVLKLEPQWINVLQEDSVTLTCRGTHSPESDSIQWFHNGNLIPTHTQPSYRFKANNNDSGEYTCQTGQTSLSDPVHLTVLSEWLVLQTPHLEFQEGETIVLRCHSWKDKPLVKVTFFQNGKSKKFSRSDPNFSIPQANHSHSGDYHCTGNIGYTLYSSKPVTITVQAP

T2: FcγRIIb (human, UniProt P31994 43-217)
T2 construct: extracellular domain; also called FcgRIIb; 2b
T2 sequence (looked up): T1 sequence (looked up)

B1: GpH7-A5/GpH7-B3 variant E269_01G/GpL16-k0 (He Ab) (antibody, human IgG1, kappa)
heavy 1: not shown
heavy 2: not shown
light: DIVMTQSPLSLPVTPGEPASISCQASESLVHSNRNTYLHWYLQKPGQSPQLLIYKVSNRFSGVPDRFSGSGSGTDFTLKISRVEAEDVGVYYCSQNTHVPPTFGQGTKVEIERTVAAPSVFIFPPSDEQLKSGTASVVCLLNNFYPREAKVQWKVDNALQSGNSQESVTEQDSKDSTYSLSSTLTLSKADYEKHKVYACEVTHQGLSSPVTKSFNRGEC
notes: He Ab: mutation in one H chain only
B2: GpH7-A5/GpH7-B3 variant E269_15Y/GpL16-k0 (He Ab) (antibody, human IgG1, kappa)
heavy 1: not shown
heavy 2: not shown
light: B1 light
notes: as for B1
B3: GpH7-A5/GpH7-B3 variant T335_10E/GpL16-k0 (antibody, human IgG1, kappa)
heavy 1: not shown
heavy 2: not shown
light: B1 light
notes: also called He Ab T335_10E
B4: GpH7-A5/GpH7-B3 variant E269_19Q/GpL16-k0 (He Ab) (antibody, human IgG1, kappa)
heavy 1: not shown
heavy 2: not shown
light: B1 light
notes: as for B1
B5: GpH7-A5/GpH7-B3 variant T335_09D/GpL16-k0 (antibody, human IgG1, kappa)
heavy 1: not shown
heavy 2: not shown
light: B1 light
notes: also called He Ab T335_09D
B6: GpH7-A5/GpH7-B3 variant E269_20W/GpL16-k0 (He Ab) (antibody, human IgG1, kappa)
heavy 1: not shown
heavy 2: not shown
light: B1 light
notes: as for B1
B7: GpH7-A5/GpH7-B3 variant L234_04F/GpL16-k0 (He Ab) (antibody, human IgG1, kappa)
heavy 1: not shown
heavy 2: not shown
light: B1 light
notes: as for B1
B8: GpH7-A5/GpH7-B3 variant E269_08L/GpL16-k0 (He Ab) (antibody, human IgG1, kappa)
heavy 1: not shown
heavy 2: not shown
light: B1 light
notes: as for B1
B9: GpH7-A5/GpH7-B3 variant P271_04F/GpL16-k0 (He Ab) (antibody, human IgG1, kappa)
heavy 1: not shown
heavy 2: not shown
light: B1 light
notes: as for B1
B10: GpH7-A5/GpH7-B3 variant E269_05P/GpL16-k0 (He Ab) (antibody, human IgG1, kappa)
heavy 1: not shown
heavy 2: not shown
light: B1 light
notes: as for B1
B11: GpH7-A5/GpH7-B3 variant T335_07I/GpL16-k0 (antibody, human IgG1, kappa)
heavy 1: not shown
heavy 2: not shown
light: B1 light
notes: also called He Ab T335_07I
B12: GpH7-A5/GpH7-B3 variant P271_11K/GpL16-k0 (He Ab) (antibody, human IgG1, kappa)
heavy 1: not shown
heavy 2: not shown
light: B1 light
notes: as for B1
B13: GpH7-A5/GpH7-B3 variant L234_15Y/GpL16-k0 (He Ab) (antibody, human IgG1, kappa)
heavy 1: not shown
heavy 2: not shown
light: B1 light
notes: as for B1
B14: GpH7-A5/GpH7-B3 variant D265_19Q/GpL16-k0 (antibody, human IgG1, kappa)
heavy 1: not shown
heavy 2: not shown
light: B1 light
notes: mutation in the GpH7-B3 chain only; also called He Ab
B15: GpH7-A5/GpH7-B3 variant E269_16H/GpL16-k0 (He Ab) (antibody, human IgG1, kappa)
heavy 1: not shown
heavy 2: not shown
light: B1 light
notes: as for B1
B16: GpH7-A5/GpH7-B3 variant E269_14T/GpL16-k0 (He Ab) (antibody, human IgG1, kappa)
heavy 1: not shown
heavy 2: not shown
light: B1 light
notes: as for B1
B17: GpH7-A5/GpH7-B3 variant H268_08L/GpL16-k0 (He Ab) (antibody, human IgG1, kappa)
heavy 1: not shown
heavy 2: not shown
light: B1 light
notes: as for B1
B18: GpH7-A5/GpH7-B3 variant T335_15Y/GpL16-k0 (antibody, human IgG1, kappa)
heavy 1: not shown
heavy 2: not shown
light: B1 light
notes: also called He Ab T335_15Y
B19: GpH7-A5/GpH7-B3 variant P271_02A/GpL16-k0 (He Ab) (antibody, human IgG1, kappa)
heavy 1: not shown
heavy 2: not shown
light: B1 light
notes: as for B1
B20: GpH7-A5/GpH7-B3 variant E269_18N/GpL16-k0 (He Ab) (antibody, human IgG1, kappa)
heavy 1: not shown
heavy 2: not shown
light: B1 light
notes: as for B1
B21: GpH7-A5/GpH7-B3 variant T335_08L/GpL16-k0 (antibody, human IgG1, kappa)
heavy 1: not shown
heavy 2: not shown
light: B1 light
notes: also called He Ab T335_08L
B22: GpH7-A5/GpH7-B3 variant T335_12R/GpL16-k0 (antibody, human IgG1, kappa)
heavy 1: not shown
heavy 2: not shown
light: B1 light
notes: also called He Ab T335_12R
B23: GpH7-A5/GpH7-B3 variant E269_07I/GpL16-k0 (He Ab) (antibody, human IgG1, kappa)
heavy 1: not shown
heavy 2: not shown
light: B1 light
notes: as for B1
B24: GpH7-A5/GpH7-B3 variant V266_19Q/GpL16-k0 (antibody, human IgG1, kappa)
heavy 1: not shown
heavy 2: not shown
light: B1 light
notes: also called He Ab V266_19Q

How the values were obtained:
[1] = target: T3, FcγRIa extracellular domain with C-terminal His tag (human, UniProt P12314 16-292); experiment: SPR (Biacore), relative binding, HeCon Ab = 100
T3 construct: extracellular domain; Expressed in FreeStyle293 cells; analyte in the SPR assay; also called FcgRI; 1a
T3 sequence (P12314 16-292): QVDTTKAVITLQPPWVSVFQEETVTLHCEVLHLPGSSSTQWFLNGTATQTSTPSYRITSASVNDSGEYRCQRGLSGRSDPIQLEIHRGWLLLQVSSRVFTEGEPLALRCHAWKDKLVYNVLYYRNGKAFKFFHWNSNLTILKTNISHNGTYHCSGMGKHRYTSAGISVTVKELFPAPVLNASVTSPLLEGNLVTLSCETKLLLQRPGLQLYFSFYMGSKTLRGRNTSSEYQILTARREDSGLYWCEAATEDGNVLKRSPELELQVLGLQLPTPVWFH

[2] = target: T1, FcγRIIb extracellular domain with …; experiment: SPR (Biacore), relative binding, HeCon Ab = 100
[3] = target: T4, FcγRIa (human, UniProt P12314 16-292); experiment: SPR (Biacore); He Ab vs HeCon Ab GpH7-A5/GpH7-B3/GpL16-k0
T4 construct: extracellular domain; Soluble extracellular domain expressed in FreeStyle293 cells, used as analyte in Biacore; also called FcgRI; 1a; not shown: His tag attached to the C terminus
T4 sequence (P12314 16-292): as above
How it was run: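 On Biacore T100 at 25° C in HBS-EP+, FcγR extracellular domains flowed over test antibodies held by immobilized antigen peptide. Glycine-HCl 10 mM, pH 1.5 stripped captured antibody between cycles; values reported as binding relative to the control antibody.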

[4] = target: T2, FcγRIIb; experiment: SPR (Biacore), relative binding

He/Con_1a [1] | He/Con_2b [2] | He/Con_1a [3] | He/Con_2b [4] | Binder
104 % of HeCon Ab (=100) | 51.5 % of HeCon Ab (=100) | – | – | B1
106 % of HeCon Ab (=100) | 44.7 % of HeCon Ab (=100) | – | – | B2
– | – | 109 relative binding, control = 100 | – | B3
105 % of HeCon Ab (=100) | 44.3 % of HeCon Ab (=100) | – | – | B4
– | – | 108 relative binding, control = 100 | – | B5
105 % of HeCon Ab (=100) | 42.5 % of HeCon Ab (=100) | – | – | B6
101 % of HeCon Ab (=100) | 99.8 % of HeCon Ab (=100) | – | – | B7
104 % of HeCon Ab (=100) | 42.9 % of HeCon Ab (=100) | – | – | B8
102 % of HeCon Ab (=100) | 59.5 % of HeCon Ab (=100) | – | – | B9
102 % of HeCon Ab (=100) | 52.6 % of HeCon Ab (=100) | – | – | B10
– | – | 109 relative binding, control = 100 | – | B11
103 % of HeCon Ab (=100) | 90.2 % of HeCon Ab (=100) | – | – | B12
100 % of HeCon Ab (=100) | 96.3 % of HeCon Ab (=100) | – | – | B13
– | – | – | 33.4 % of GpH7-A5/GpH7-B3/GpL16-k0 | B14
106 % of HeCon Ab (=100) | 38.5 % of HeCon Ab (=100) | – | – | B15
106 % of HeCon Ab (=100) | 50.6 % of HeCon Ab (=100) | – | – | B16
107 % of HeCon Ab (=100) | 67.8 % of HeCon Ab (=100) | – | – | B17
– | – | 107 relative binding, control = 100 | – | B18
104 % of HeCon Ab (=100) | 88 % of HeCon Ab (=100) | – | – | B19
102 % of HeCon Ab (=100) | 44.8 % of HeCon Ab (=100) | – | – | B20
– | – | 115 relative binding, control = 100 | – | B21
– | – | 113 relative binding, control = 100 | – | B22
103 % of HeCon Ab (=100) | 43.9 % of HeCon Ab (=100) | – | – | B23
– | – | 100 relative binding, control = 100 | – | B24
